Results from publication PMC2943749.
“And” between values parts separate entries of the source, which are not always exact repeats. Equal values may be shown once.

Target: PtdIns5P 4-kinase IIβ, genomically tagged with a FLAG-(His6)2 tag (DT40 cell line JPR3) (chicken (endogenous in DT40))
Test: affinity purification with mass spectrometry

## PtdIns5P 4-kinase IIα, endogenous and untagged (in JPR3 DT40 cells) (from UniProt Q5F356 1-405) (enzyme)
  ratio IIβ/IIα in the pull-down (peptide set 559/565): 1.39 and 1.37 and 1.75
  ratio IIβ/IIα in the pull-down (peptide set 829/828): 0.92 and 1.41 and 1.47
